# In IntAct's records for PubMed 18022368:
# B1: MAD2L1-binding protein (Homo sapiens), Q15013 (parent)
# chain: MAAPEAEVLSSAAVPDLEWYEKSEETHASQIELLETSSTQEPLNASEAFCPRDCMVPVVFPGPVSQEGCCQFTCELLKHIMYQRQQLPLPYEQLKHFYRKPSPQAEEMLKKKPRATTEVSSRKCQQALAELESVLSHLEDFFARTLVPRVLILLGGNALSPKEFYELDLSLLAPYSVDQSLSTAACLRRLFRAIFMADAFSELQAPPLMGTVVMAQGHRNCGEDWFRPKLNYRVPSRGHKLTVTLSCGRPSIRTTAWEDYIWFQAPVTFKGFRE
# Variants of: B1
# Conditions: with md2l1_human MAD2L1, Q13257
# Chain of md2l1_human MAD2L1, Q13257 (Q13257 whole entry): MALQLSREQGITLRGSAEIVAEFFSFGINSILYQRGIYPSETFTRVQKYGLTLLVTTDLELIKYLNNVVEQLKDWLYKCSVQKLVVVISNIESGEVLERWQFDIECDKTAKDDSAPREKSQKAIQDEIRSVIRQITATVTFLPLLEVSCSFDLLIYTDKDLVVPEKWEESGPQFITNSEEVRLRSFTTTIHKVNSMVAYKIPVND
row,effect of a mutation on the interaction,Variant
1,decreasing interaction,Q83A;F191A
2,decreasing interaction,F191A
3,decreasing interaction,Q83A
